Assay [1] addresses T1, Cor1, subunit of complex III (S. cerevisiae, UniProt P07256 27-457).
T1 sequence: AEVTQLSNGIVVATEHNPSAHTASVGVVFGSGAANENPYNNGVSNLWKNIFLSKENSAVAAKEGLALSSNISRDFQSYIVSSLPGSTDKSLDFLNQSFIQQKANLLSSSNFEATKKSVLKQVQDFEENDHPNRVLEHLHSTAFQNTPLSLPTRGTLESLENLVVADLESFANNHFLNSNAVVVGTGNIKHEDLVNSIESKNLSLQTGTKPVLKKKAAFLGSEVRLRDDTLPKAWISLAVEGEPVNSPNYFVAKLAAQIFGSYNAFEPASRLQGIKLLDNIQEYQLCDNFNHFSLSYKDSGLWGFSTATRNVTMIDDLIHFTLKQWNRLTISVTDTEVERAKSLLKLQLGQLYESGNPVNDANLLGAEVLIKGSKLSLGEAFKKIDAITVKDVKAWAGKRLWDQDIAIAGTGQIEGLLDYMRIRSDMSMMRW
Put plainly: cryo-EM structure.

Assay [2] deals with wild-type (untethered) III2IV2 respiratory supercomplex with Cox4-Flag (S. cerevisiae) (UniProt P07256). Put plainly: co-IP.

B1: Cox5a, subunit of complex IV (natural protein)
chain: AQTHALSNAAVMDLQSRWENMPSTEQQDIVSKLSERQKLPWAQLTEPEKQAVWYISYGEWGPRRPVLNKGDSSFIAKGVAAGLLFSVGLFAVVRMAGGQDAKTMNKEWQLKSDEYLKSKNANPWGGYSQVQSK
Consider B1, for which, in assay [1], the binding result is reported as “binds”.

B2: Nde1, external mitochondrial NADH dehydrogenase (enzyme)
chain: EDKKVILQKVAPTTGVVAKQSFFKRTGKFTLKALLYSALAGTAYVSYSLYREANPSTQVPQSDTFPNGSKRKTLVILGSGWGSVSLLKNLDTTLYNVVVVSPRNYFLFTPLLPSTPVGTIELKSIVEPVRTIARRSHGEVHYYEAEAYDVDPENKTIKVKSSAKNNDYDLDLKYDYLVVGVGAQPNTFGTPGVYEYSSFLKEISDAQEIRLKIMSSIEKAASLSPKDPERARLLSFVVVGGGPTGVEFAAELRDYVDQDLRKWMPELSKEIKVTLVEALPNILNMFDKYLVDYAQDLFKEEKIDLRLKTMVKKVDATTITAKTGDGDIENIPYGVLVWATGNAPREVSKNLMTKLEEQDSRRGLLIDNKLQLLGAKGSIFAIGDCTFHPGLFPTAQVAHQEGEYLAQYFKKAYKIDQLNWKMTHAKDDSEVARLKNQIVKTQSQIEDFKYNHKGALAYIGSDKAIADLAVGEAKYRLAGSFTFLFWKSAYLAMCLSFRNRVLVAMDWAKVYFLGRDSSI
B2 returned a fold decrease of co-purified Nde1 (normalised to purified SC) against III2IV1 SC in assay [2] of 2 fold.

The values are drawn from publication doi:10.1101/2024.12.19.629262 (bioRxiv, 2024).
